{"source": "patent US11111295", "target": "human claudin 18A2 (CLD18A2) (human)", "sequence (chain, as listed by the source limits assumed, form in doubt)": "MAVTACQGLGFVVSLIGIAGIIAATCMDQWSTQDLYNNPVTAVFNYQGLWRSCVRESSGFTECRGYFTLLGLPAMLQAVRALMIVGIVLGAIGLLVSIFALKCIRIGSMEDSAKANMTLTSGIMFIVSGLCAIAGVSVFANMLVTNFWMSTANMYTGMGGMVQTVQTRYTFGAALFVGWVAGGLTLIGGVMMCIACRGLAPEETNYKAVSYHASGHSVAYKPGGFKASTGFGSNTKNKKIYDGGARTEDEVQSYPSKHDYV", "assay": "cell-based or functional assay"}
{"substance": "hu8E5-28Z chimeric antigen receptor", "values": [{"measurement": "CAR-T cytotoxicity on AGS-A2 cells, effector-to-target ratio 3:1", "value": "> 60", "unit": "%"}, {"measurement": "CAR-T cytotoxicity on BGC-823-A2 cells, effector-to-target ratio 3:1", "value": "> 90", "unit": "%"}]}
